Measured values reported in patent CN116041526A.

Molecular target: 重组蛋白SUMO-IgT CH1-CH2 (recombinant grass carp IgT heavy chain constant region CH1-CH2 domains fused to SUMO, from E. coli) (草鱼 (Ctenopharyngodon idella))
Test: titre of the antibody purified from ascites; assay not given, taken as ELISA on SUMO-IgT CH1-CH2

B1: 鼠抗草鱼IgT单克隆抗体 (mouse anti-grass carp IgT monoclonal antibody, secreted by hybridoma cell line IgT-6H6G11, CCTCC NO: C202288) (antibody, IgG2a, V domains shown)
VH: QVQLVETGGGLVRPGNSLKLSCVTSGFTFSNYRMHWLRQPPGKRLEWIAVITVKSDNYRARYAESVKGRFTISRDDSKSSVYLQMNRLREEDTATYFCSREGPYYGNWVAMDYWGQGTSVTVSS
VL: DVVLTQSPATLSVTPGDRVSLSCRASQSISNYLHWYQQKSHESPRLLIKYASQSISGIPSRFSGSGSGTGFTLSINSVETEDFGMYFCQQSHSWPYTFGGGTKLEIK
效价 (titre) (dilution (1:x)): 64000
